Tests used:
Experiment in all cases: cell-based or functional assay
Pig IR = Pig IR (pig, UniProt F1SCL0 28-1382)
[1] = biological target: human insulin receptor isoform B (human, UniProt P06213 28-1382)
Rat IR = Rat IR (rat, UniProt P15127 27-1383)
[2] = biological target: human insulin receptor isoform A (human, UniProt P06213-2 28-1370)

Rat IR, sequence (P15127 27-1383): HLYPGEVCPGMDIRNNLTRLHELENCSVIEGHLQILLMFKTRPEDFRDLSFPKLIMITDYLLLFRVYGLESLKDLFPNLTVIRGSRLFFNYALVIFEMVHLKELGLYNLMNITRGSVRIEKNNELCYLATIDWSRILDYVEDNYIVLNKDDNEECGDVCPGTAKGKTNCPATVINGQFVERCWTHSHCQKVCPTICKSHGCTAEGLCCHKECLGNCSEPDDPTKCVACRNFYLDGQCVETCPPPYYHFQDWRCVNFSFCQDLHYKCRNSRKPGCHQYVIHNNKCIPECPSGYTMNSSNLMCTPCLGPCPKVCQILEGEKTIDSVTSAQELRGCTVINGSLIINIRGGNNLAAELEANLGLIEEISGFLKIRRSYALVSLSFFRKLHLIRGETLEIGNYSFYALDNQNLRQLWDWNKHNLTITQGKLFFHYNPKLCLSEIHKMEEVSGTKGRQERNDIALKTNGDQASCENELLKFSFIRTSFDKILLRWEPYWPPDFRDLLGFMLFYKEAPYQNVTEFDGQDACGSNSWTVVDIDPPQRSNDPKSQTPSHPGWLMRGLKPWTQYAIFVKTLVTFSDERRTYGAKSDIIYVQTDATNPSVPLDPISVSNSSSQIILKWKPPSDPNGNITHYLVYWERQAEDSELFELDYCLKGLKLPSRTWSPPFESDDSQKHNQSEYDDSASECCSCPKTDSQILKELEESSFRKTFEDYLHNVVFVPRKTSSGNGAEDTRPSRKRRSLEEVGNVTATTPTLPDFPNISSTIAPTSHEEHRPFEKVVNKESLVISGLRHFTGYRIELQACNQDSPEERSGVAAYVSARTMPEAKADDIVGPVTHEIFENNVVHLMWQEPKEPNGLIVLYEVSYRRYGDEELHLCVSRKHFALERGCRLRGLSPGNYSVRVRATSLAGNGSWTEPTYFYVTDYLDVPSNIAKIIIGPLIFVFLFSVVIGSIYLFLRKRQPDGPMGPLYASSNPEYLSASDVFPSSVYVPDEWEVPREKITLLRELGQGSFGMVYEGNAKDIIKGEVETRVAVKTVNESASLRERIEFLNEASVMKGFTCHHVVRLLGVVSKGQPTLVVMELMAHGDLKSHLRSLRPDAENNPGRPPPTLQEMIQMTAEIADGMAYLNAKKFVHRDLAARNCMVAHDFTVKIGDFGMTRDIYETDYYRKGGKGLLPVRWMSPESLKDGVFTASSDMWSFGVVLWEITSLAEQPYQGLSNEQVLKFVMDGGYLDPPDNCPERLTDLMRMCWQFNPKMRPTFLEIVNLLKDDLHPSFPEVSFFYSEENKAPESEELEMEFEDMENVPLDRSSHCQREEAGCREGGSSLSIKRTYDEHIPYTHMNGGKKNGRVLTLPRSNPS

| Pig IR phosphorylation [EC 50 nM] mean (Pig IR) | hIR-B-phosphorylation [EC50 nM] mean [1] | Rat IR phosphorylation [EC50 nM] mean (Rat IR) | hIR-A phosphorylation [EC50 nM] mean [2] | Binder |
| --- | --- | --- | --- | --- |
| 29.9 nM | 59.8 nM | 381 nM | 408 nM | scl-Fc fusion protein INS023 (Fc fusion) SFVNQHLCGSHLVEALELVCGERGFHYTPKTGSYPGGVGIVEQCCTSICSLSQLENYCGGEAEDLQVGQVELGGGPGAGSLQPEGSLQGGPSVFLFPPKPKDTLMISRTPEVTCVVVDVSHEDPEVKFNWYVDGVEVHNAKTKPREEQYNSTYRVVSVLTVLHQDWLNGKEYKCKVSNKALPAPIEKTISKAKGQPREPQVYTLPPSRDELTKNQVSLTCLVKGFYPSDIAVEWESNGQPENNYKTTPPVLDSDGSFFLYSKLTVDKSRWQQGNVFSCSVMHEALHNHYTQKSLSLSPGGGGGSAESKYGPPCPPCPA |
| 157 nM | 185 nM | 247 nM | 718 nM | scl-Fc fusion protein INS020 (Fc fusion) FVNQHLCGSHLVEALELVCGERGFHYTPKTEEYPGDVGIVEQCCTSICSLSQLENYCGGEAEDLQVGQVELGGGPGAGSLQPEGSLQGGPSVFLFPPKPKDTLMISRTPEVTCVVVDVSHEDPEVKFNWYVDGVEVHNAKTKPREEQYNSTYRVVSVLTVLHQDWLNGKEYKCKVSNKALPAPIEKTISKAKGQPREPQVYTLPPSRDELTKNQVSLTCLVKGFYPSDIAVEWESNGQPENNYKTTPPVLDSDGSFFLYSKLTVDKSRWQQGNVFSCSVMHEALHNHYTQKSLSLSPGGGGGSAESKYGPPCPPCPA |
| 15.9 nM | 42.2 nM | 64.9 nM | 215 nM | scl-Fc fusion protein INS022 (Fc fusion) FVNQHLCGSHLVEALELVCGERGFHYTPKTGSYPGGVGIVEQCCTSICSLSQLENYCGGEAEDLQVGQVELGGGPGAGSLQPEGSLQGGPSVFLFPPKPKDTLMISRTPEVTCVVVDVSHEDPEVKFNWYVDGVEVHNAKTKPREEQYNSTYRVVSVLTVLHQDWLNGKEYKCKVSNKALPAPIEKTISKAKGQPREPQVYTLPPSRDELTKNQVSLTCLVKGFYPSDIAVEWESNGQPENNYKTTPPVLDSDGSFFLYSKLTVDKSRWQQGNVFSCSVMHEALHNHYTQKSLSLSPGGGGGSAESKYGPPCPPCPA |

Further lines, the binder ahead of its results:

| Binder | Pig IR phosphorylation [EC 50 nM] mean (Pig IR) | hIR-B-phosphorylation [EC50 nM] mean [1] | Rat IR phosphorylation [EC50 nM] mean (Rat IR) | hIR-A phosphorylation [EC50 nM] mean [2] |
| --- | --- | --- | --- | --- |
| scl-Fc fusion protein INS019 (Fc fusion) SFVNQHLCGSHLVEALELVCGERGFHYTPKTGSYPGGVGIVEQCCTSICSLSQLEDYCGGEAEDLQVGQVELGGGPGAGSLQPEGSLQGGPSVFLFPPKPKDTLMISRTPEVTCVVVDVSHEDPEVKFNWYVDGVEVHNAKTKPREEQYNSTYRVVSVLTVLHQDWLNGKEYKCKVSNKALPAPIEKTISKAKGQPREPQVYTLPPSRDELTKNQVSLTCLVKGFYPSDIAVEWESNGQPENNYKTTPPVLDSDGSFFLYSKLTVDKSRWQQGNVFSCSVMHEALHNHYTQKSLSLSPGGGGGSAESKYGPPCPPCPA | 43 nM | 292 nM | 2200 nM | 666 nM |
| scl-Fc fusion protein INS021 (Fc fusion) SFVNQHLCGSHLVEALELVCGERGFHYTPKTEEYPGDVGIVEQCCTSICSLSQLENYCGGEAEDLQVGQVELGGGPGAGSLQLALEGSLQGGPSVFLFPPKPKDTLMISRTPEVTCVVVDVSHEDPEVKFNWYVDGVEVHNAKTKPREEQYNSTYRVVSVLTVLHQDWLNGKEYKCKVSNKALPAPIEKTISKAKGQPREPQVYTLPPSRDELTKNQVSLTCLVKGFYPSDIAVEWESNGQPENNYKTTPPVLDSDGSFFLYSKLTVDKSRWQQGNVFSCSVMHEALHNHYTQKSLSLSPGGGGGSAESKYGPPCPPCPA | 56.7 nM | 288 nM | 620 nM | 447 nM |
